Results from the supplement of paper PMC11502859.

These substances were tested on HEK293T (assay: median enrichment of reporter reads in eGFP-reduced (low/intermediate) vs eGFP-high sorted cells (eGFP-extension fusion abundance) (ratio); higher = stronger loss of eGFP-fusion protein abundance (more destabilising extension)).
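Note: lentiviral eGFP-IRES-mCherry reporter pool sorted by FACS 96 h post-transduction, gated on mCherry-high cells, Illumina read counts normalized per million, median across four biological replicates.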

Compared with RGSRRKQDTRWQA [PHGR1], RGTAVPACSPHLGRGSLAAFSLRSRST [AGAP1] is lower in median enrichment: 3.92 for the first, 0.942 for the second.

First: RGTLRSPKTSSCWGPHEGTSTLWGVARKRQALQLGDPIWKRDSDLPTSSSSFSTKAPVDSREVVKIFFSPIFLPASGDTAAVT [PGPEP1]
Second: RGWDPLLKLVASAGLGAAPQRLQLIC [FES]
The median enrichment of the first is lower: 2.83 for the first, 32.6 for the second.

First: RHRGKRRKSC [CLDN1]
Second: RHRRTPGDFLYICRLRLFVTSKWDIV [TAF4]
The median enrichment of the first is lower: 0.381 for the first, 12 for the second.

Compared with RHSELLAVEEHHAYL [YTHDC2], RHSPLLVPH [TP53] is higher in median enrichment: 0.354 for the first, 0.971 for the second.

Compared with “RHSTRPPGLLGPPTPTALTAFPIAPGSSPPLGGTVKGSSLTRRLLLPLGSQLPPQESLLGRTLRTPSLHPVVL [KLC4]”, RHVIP [NPFF] is lower in median enrichment: 9.71 for the first, 0.57 for the second.

First: RICKRRRHDVLCLH [MED12L]
Second: RIFCLVASQLGVL [GXYLT2]
The median enrichment of the first is higher: 13.4 for the first, 6.32 for the second.

Compared with RIFTHIYLVSIG [FAM129C], RILDQ [SH3KBP1] is lower in median enrichment: 28.5 for the first, 1.07 for the second.

Compared with “RILPNALSENAELPFLFASFIFNIHNVVCLKVGFEVCAAYSFHLSPRFPSL [RRAGA]”, “RILSLIPATPLLISGGRTVSELFVSIGHLSLVVKDWLMITMHRKTFRRKGECFVDHFGFLFCVWQF [EEF1A1]” is lower in median enrichment: 15.7 for the first, 5.71 for the second.

Going from RIQPKCQVRSEGIFH [ABCC4] to “RKCQEWKIFLILVQHEVVFRSLLSLIAILRFVGFYERLLLSGLKSFLNVCFLRSVIQLCEYFVTDLFQWLLV [HINT3]”, the median enrichment rises from 1.49 to 11.3.

Going from RKDNSWKPQQFSIQGIYLRQIEYIL [ARL6] to “RKEKQLLPLSWDRGVGKSAGPHGAWGSQTEAPQNFLQCLRDAWMWPLPLLLTLKDSQTH [LY9]”, the median enrichment falls from 6.56 to 4.97.

Compared with “RKFLLNISVGSCYQNFGYDFLGSVYFGCILNYGNGIYLLLTVNLFF [CCDC181]”, RKGGSYSQAAM [HLA-G] is lower in median enrichment: 5.89 for the first, 0.441 for the second.

Compared with “RKINYTFYSPPEDHCPKAGSICSNNAAFTSSVHLCS [OR4M1]”, RKLLP [NOX4] is lower in median enrichment: 10.5 for the first, 0.64 for the second.

Going from “RKPLNVRNVGRPFNIITNFMDIIDFIFVRTLMNVKDVGNALPVVETLEYIREFILVRNHINVKNVGKPLVIVQTC [ZNF780B]” to RKSNASRLSEA [VHLL], the median enrichment falls from 7.09 to 0.269.

Compared with RKTWPENPQVLQRKTELGKGESWKDGAD [ABHD15], RKWNS [GCSH] is lower in median enrichment: 1.61 for the first, 0.655 for the second.

First: RLAACLRNPAFFRR [MAPK10]
Second: RLEPV [TMEM87B]
The median enrichment of the first is higher: 12.2 for the first, 0.479 for the second.

First: RLHRNCW [OR2Z1]
Second: RLHTCMLSPRGNGLYIAHFTLFRRHFIPALVLLEGLSRQSSSCSASVCDSPPSTPMALSLGDSSSPRKEGGVAEDLQPWPRGA [PRKAB1]
The median enrichment of the first is lower: 3.02 for the first, 7.16 for the second.

Compared with RLLTHRHNLGH [MMP19], RLMW [KRTAP13-3] is lower in median enrichment: 8.57 for the first, 3.36 for the second.

First: RLNICSVLKLMCFVGV [FBXL4]
Second: RLPAAQKNFALSFPVLFHTQKDPRKPVFNM [NR3C2]
The median enrichment of the first is higher: 10.3 for the first, 3.55 for the second.

Compared with RLQSVVLVPLSQCRLVFLHILSMA [CDC16], “RLSTGPLHTISLIYVPSTLPQISGSGPGTWEGTGVRGCMGALAAPGSVVGRKLWKL [LRRC73]” is lower in median enrichment: 7.48 for the first, 6.15 for the second.

Going from “RLVIFFQRVMQSGYKRIFCLPYKGILPAAKFKQ [ARMC10]” to “RLWSRHPAEWGPRGCQLGALPLAATLWSGRVLHHQEDPILSSVSCPSCCGMLSTEPTAHLPLHLPESVSICNKRQPRLPRAVS [INAFM1]”, the median enrichment falls from 14.7 to 3.36.

First: RLYRLRR [ST3GAL6]
Second: RMKSTASE [SERPINI2]
The median enrichment of the first is higher: 10.7 for the first, 0.64 for the second.

Going from RMLEAFIHL [ZNF248] to RMNTCQE [OR52N4], the median enrichment falls from 1.59 to 0.48.

First: RMSSFIRIWALSSFFSTHFPLPGPPLIQMPPSDSSWKPFLQLGQYDF [MSANTD2]
Second: RNCMKKIKSSKMALVTIKKL [CXorf41]
The median enrichment of the first is higher: 33.9 for the first, 2.73 for the second.

RNEYMTGNNGDCL [CTPS2] gave a median enrichment of 0.464.
